Measured values: patent US20040028607

B1: recombinant yeast Hst2p (protein)
chain: MSVSTASTEMSVRKIAAHMKSNPNAKVIFMVGAGISTSCGIPDFRSPGTGLYHNLARLKLPYPEAVFDVDFFQSDPLPFYTLAKELYPGNFRPSKFHYLLKLFQDKDVLKRVYTQNIDTLERQAGVKDDLIIEAHGSFAHCHCIGCGKVYPPQVFKSKLAEHPIKDFVKCDVCGELVKPAIVFFGEDLPDSFSETWLNDSEWLREKITTSGKHPQQPLVIVVGTSLAVYPFASLPEEIPRKVKRVLCNLETVGDFKANKRPTDLIVHQYSDEFAEQLVEELGWQEDFEKILTAQGGMGDNSKEQLLEIVHDLENLSLDQSEHESADKKDKKLQRLNGHDSDEDGASNSSSSQKAAKE
B2: recombinant human SIRT2 (6xHis-tagged, with factor Xa cleavage site, purified from E. coli) (protein)
chain: MAEPDPSHPLETQAGKVQEAQDSDSDSEGGAAGGEADMDFLRNLFSQTLSLGSQKERLLDELTLEGVARYMQSERCRRVICLVGAGISTSAGIPDFRSPSTGLYDNLEKYHLPYPEAIFEISYFKKHPEPFFALAKELYPGQFKPTICHYFMRLLKDKGLLLRCYTQNIDTLERIAGLEQEDLVEAHGTFYTSHCVSASCRHEYPLSWMKEKIFSEVTPKCEDCQSLVKPDIVFFGESLPARFFSCMQSDFLKVDLLLVMGTSLQVQPFASLISKAPLSTPRLLINKEKAGQSDPFLGMIMGLGGGMDFDSKKAYRDVAWLGECDQGCLALAELLGWKKELEDLVRREHASIDAQSGAGVPNPSTSASPKKSPPPAKDEARTTEREKPQ

What was measured:
[1] = biological target: PCAF-acetylated calf thymus core histones
[2] = biological target: T1, 9-amino acid synthetic alpha-tubulin peptide MPSD(AcK)TIGG, acetylated on lysine-40
T1 chain: MPSDXTIGG

[3] = biological target: monoacetylated histone H3 peptide …(AcK)APRKQL, acetylated on lysine-14

Protein	apparent V/K for deacetylation of core histones, fold over SIRT2 [1]	V/K, deacetylation of tubulin peptide, HPLC [2] [M⁻¹ s⁻¹]	kcat (printed 'kea'), deacetylation of tubulin peptide, HPLC [2] [s⁻¹]	fold preference for H3 peptide relative to SIRT2 (V/K and Km) [3]	kcat (printed 'km values'), deacetylation of acetylated H3 peptide [3]	fold preference for tubulin peptide relative to Hst2p (kcat and V/K) [2]
B1	Hst2p exhibited a 7-fold higher V/K value than SIRT2	14.9	0.00254 ± 0.0003	˜200-fold stronger preference for H3 peptide relative to SIRT2	The km values (˜0.2 s^-1) were similar between the two enzymes	–
B2	–	894 ± 100	0.144 ± 0.005	–	The km values (˜0.2 s^-1) were similar between the two enzymes	This difference was 60-fold
